Results published in patent US20260069728A1, “MULTI-TARGETING COMPOUND AND USE THEREOF” (Chengdu Shetai Medical Technology Co., Ltd., priority 2023, published 2026).
Read-outs that look alike come from different tables or passages of the source.

Experiments:
[1] = Stability of radioligands in PBS buffer (radio-HPLC); format: physicochemical
Method: The purpose of this experiment was to test the stability of the radioligands under buffer conditions simulating the physiological environment. This stability is a prerequisite for further animal experiments.
(§1) 1. ^68Ga-SDYD01: ^68Ga-SDYD01 was added to PBS buffer (pH=7.4) and incubated at 37° C. The mixture samples were taken for radio-HPLC analysis after 0.5 hours, 1 hour, and 2 hours of incubation. The stability of ^68Ga-SDYD01 in PBS buffer: the radiochemical purities of ^68Ga-SDYD01 after incubation in PBS for 0.5 hours, 1 hour, and 2 hours were 98%, 97%, and 97%, respectively (FIG. 4).
(§2) 2. ^177Lu-SDYD01: ^177Lu-SDYD01 was added to PBS buffer (pH=7.4) and incubated at 37° C. The mixture samples were taken for radio-HPLC analysis after 24 hours, 48 hours, and 120 hours of incubation. The stability of ^177Lu-SDYD01 in PBS buffer: the radiochemical purities of ^177Lu-SDYD01 after incubation in PBS for 24 hours, 48 hours, and 120 hours were 97%, 96%, and 94%, respectively (FIG. 5).
as §1, with “^68Ga-SDYD02: ^68Ga-SDYD02” for “^68Ga-SDYD01: ^68Ga-SDYD01”, “^68Ga-SDYD02” for “^68Ga-SDYD01”, “96%, 95%” for “98%, 97%,”, “93%,” for “97%,”, “10).” for “4).”
as §2, with “^177Lu-SDYD02: ^177Lu-SDYD02” for “^177Lu-SDYD01: ^177Lu-SDYD01”, “^177Lu-SDYD02” for “^177Lu-SDYD01”, “95%, 91%” for “97%, 96%,”, “87%,” for “94%,”, “11).” for “5).”
as §1, with “1. ^68Ga-SDYD05: ^68Ga-SDYD05” for “1. ^68Ga-SDYD01: ^68Ga-SDYD01”, “of ^68Ga-SDYD05” for “of ^68Ga-SDYD01”, “98%, 96%” for “98%, 97%,”, “and 95%,” for “and 97%,”, “(FIG. 16).” for “(FIG. 4).”
as §2, with “^177Lu-SDYD05: ^177Lu-SDYD05” for “^177Lu-SDYD01: ^177Lu-SDYD01”, “^177Lu-SDYD05” for “^177Lu-SDYD01”, “97%, 96% and” for “97%,”, “96%,” for “96%, and 94%,”, “17).” for “5).”
1. ^68Ga-SDYD06: ^68Ga-SDYD06 was added to PBS buffer (pH=7.4) and incubated at 37° C. The mixture samples were taken for radio-HPLC analysis after 0.5, 1, and 2 hours of incubation. The stability of ^68Ga-SDYD06 in PBS buffer: the radiochemical purities of ^68Ga-SDYD06 after incubation in PBS for 0.5 hours, 1 hour, and 2 hours were 96%, 94% and 93%, respectively (FIG. 22).
2. ^177Lu-SDYD06: ^177Lu-SDYD06 was added to PBS buffer (pH=7.4) and incubated at 37° C. The mixture samples were taken for radio-HPLC analysis after 24 hours, 48 hours, and 120 hours of incubation.
1. ^68Ga-SDYD03: ^68Ga-SDYD03 was added to PBS buffer (pH=7.4) and incubated at 37° C. The mixture samples were taken for radio-HPLC analysis after 0.5 hours, 1 hour, and 2 hours of incubation. The stability of ^68Ga-SDYD03 PBS in PBS buffer: the radiochemical purities of ^68Ga-SDYD03 after incubation in PBS for 0.5 hours, 1 hour, and 2 hours were 96%, 96% and 95%, respectively (FIG. 27).
as §2, with “^177Lu-SDYD03: ^177Lu-SDYD03” for “^177Lu-SDYD01: ^177Lu-SDYD01”, “^177Lu-SDYD03” for “^177Lu-SDYD01”, “are 99%, 96%” for “were 97%, 96%,”, “28). […]” for “5).”

[2] = tested on: subcutaneous xenograft tumors (U87 MG cells); experiment: Small animal PET imaging and biodistribution study; format: in vivo, NSG mice; details: mouse, in vivo
Method: (§3) Eleven NSG mice bearing subcutaneous xenograft tumors (U87 MG cells), with tumor sizes approximately 150 mm^3, were used. The mice were intravenously injected via the tail vein with approximately 7.4 MBq of ^68Ga-labeled SDYD01, SDYD02, SDYD03. SDYD04, SDYD05, SDYD06, SDYD07, SDYD08 or SDYD07-1 compounds, or with ^[…]-labeled FAPI-04 or FAP2286 compounds as tracers. Micro PET/CT imaging was performed at 30 min, 60 min, and 120 min post-injection. Static images were acquired in 3D mode for 20 minutes. Reconstruction was performed using the OSEM3D/MAP method to obtain attenuation-corrected PET/CT fusion images.
(§4) NSG mice bearing subcutaneous xenograft tumors (U87 MG cells) were divided into 3 groups, with 11 mice in each group. They were intravenously injected via the tail vein with ^68Ga-labeled SDYD01, SDYD02, SDYD03. SDYD04, SDYD05, SDYD06. SDYD07, SDYD08, or SDYD07-1 compounds, or with ^68Ga-labeled FAPI-04 or FAP2286 compounds as tracers. Tumor-bearing mice injected with ^68Ga-labeled compounds SDYD01, SDYD02, SDYD03, SDYD04, SDYD05, SDYD06, FAPI-04, as well as 68Ga-labeled compounds FAPI-04 and FAP2286, were euthanized at 30 min. 60 min, and 120 min, respectively, for each group. Tumor-bearing mice injected with ^68Ga-labeled compounds SDYD07, SDYD08, and SDYD07-1 were euthanized at 30 min, 60 min, and 90 min, respectively, for each group. Blood, tumors, and other major organs and tissues were collected, weighed, and measured for radioactivity. After radioactive decay correction, the standardized uptake value (SUV) and percentage injected dose per gram of tissue (% ID/g) were calculated. In these figures, (a) represents the PET/CT imaging results, (b) represents the biodistribution results, and (c) represents the relative ratios of radioactive uptake in tumor versus normal tissues.

[3] = Small animal PET imaging and biodistribution study; format: in vivo, NSG mice; details: mouse, in vivo, iv, 7.4 MBq, absolute uptake value in the tumor
Method: as §3, §4

CCCCCC(=O)N[C@@H]1CSCc2cc(CSCCNC(=O)[C@@H](CCCCNC(=O)CN3CCN(CC(=O)O)CCN(CC(=O)O)CCN(CC(=O)O)CC3)NC(=O)COCCOCCNC(=O)COCCOCCNC(=O)CCN3C(=O)CC(SCCNC(=O)CCC(=O)N[C@@H](CCCNC(=N)N)C(=O)N[C@@H](CCCNC(=N)N)C(=O)N[C@@H](Cc4ccc5ccccc5c4)C(=O)N[C@@H]4CSSC[C@@H](C(=O)N[C@@H](CCCNC(=N)N)C(N)=O)NC(=O)[C@H](CCCNC(N)=O)NC(=O)[C@H](CCCNC(=N)N)NC(=O)[C@H](Cc5ccc(O)cc5)NC(=O)[C@@H]5CCCN5C(=O)[C@H](CCCCN)NC(=O)[C@H](CCCCN)NC(=O)[C@H](CCCNC(N)=O)NC(=O)[C@H](Cc5ccc(O)cc5)NC4=O)C3=O)cc(c2)CSC[C@@H](C(=O)O)NC(=O)[C@H](Cc2ccccc2)NC(=O)[C@H](CCC(N)=O)NC(=O)C([C@@H](C)O)NC(=O)[C@@H]2CCCN2C(=O)[C@@H]2CCCN2C1=O (single isomer, unassigned) [^177Lu-SDYD02, metal not drawn]
stability in PBS buffer (in words) [1]: quite stable in PBS buffer

CC(C)CC(CC(C)C)NC(=O)[C@H](Cc1cnc[nH]1)NC(=O)CNC(=O)C(NC(=O)[C@H](C)NC(=O)[C@H](Cc1c[nH]c2ccccc12)NC(=O)[C@H](CCC(N)=O)NC(=O)[C@@H](Cc1ccccc1)NC(=O)COCC(=O)Nc1ccc(CNC(=O)COCCOCCNC(=O)COCCOCCNC(=O)[C@H](CCCCNC(=O)CN2CCN(CC(=O)O)CCN(CC(=O)O)CCN(CC(=O)O)CC2)NC(=O)CCC(=O)N2CCN(CCCOc3ccc4nccc(C(=O)NCC(=O)N5CC(F)(F)C[C@H]5C#N)c4c3)CC2)cc1)C(C)C (single isomer, unassigned) [^177Lu-SDYD03, metal not drawn]
stability in PBS buffer (in words) ([1]; PBS buffer pH=7.4, 37° C.): quite stable in PBS buffer

CCCCCC(=O)N[C@@H]1CSCc2cc(CSCCNC(=O)COCCOCCNC(=O)COCCOCCNC(=O)CSC3CC(=O)N(CCC(=O)N[C@H](CCCCNC(=O)CN4CCN(CC(=O)O)CCN(CC(=O)O)CCN(CC(=O)O)CC4)C(=O)NCc4ccc(C(=O)NCCC[C@@H]5C(=O)N[C@@H](CCCNC(=N)N)C(=O)N[C@@H](Cc6ccc7ccccc7c6)C(=O)NCC(=O)N[C@H](Cc6ccc(O)cc6)C(=O)N5C)cc4)C3=O)cc(c2)CSC[C@@H](C(=O)O)NC(=O)[C@H](Cc2ccccc2)NC(=O)[C@H](CCC(N)=O)NC(=O)C([C@@H](C)O)NC(=O)[C@@H]2CCCN2C(=O)[C@@H]2CCCN2C1=O (single isomer, unassigned) [^177Lu-SDYD06, metal not drawn]
stability in PBS buffer (in words) [1]: quite stable in PBS buffer

CCCCCC(=O)N[C@H]1CSCc2cc(CSCCNC(=O)[C@H](CCCCNC(=O)CCN3C(=O)CC(SCC(=O)NCCOCCOCCOCCOCCC(=O)NCCCC[C@@H]4NC(=O)[C@@H](Cc5ccc(O)cc5)NC(=O)[C@H](CC(=O)O)NC(=O)CNC(=O)[C@H](CCCNC(=N)N)NC4=O)C3=O)NC(=O)CCC(C(=O)O)N3CCN(CC(=O)O)CCN(CC(=O)O)CCN(CC(=O)O)CC3)cc(c2)CSC[C@@H](C(=O)O)NC(=O)[C@H](Cc2ccccc2)NC(=O)[C@H](CCC(N)=O)NC(=O)C([C@@H](C)O)NC(=O)[C@@H]2CCCN2C(=O)[C@@H]2CCCN2C1=O (single isomer, unassigned) [^177Lu-SDYD08, metal not drawn]
stability in PBS buffer (in words) [1]: quite stable in PBS buffer

N#C[C@@H]1CC(F)(F)CN1C(=O)CNC(=O)c1ccnc2ccc(OCCCN3CCN(C(=O)CCOCCOCCNC(=O)CCN4C(=O)CC(SC[C@H](NC(=O)CN5CCN(CC(=O)O)CCN(CC(=O)O)CCN(CC(=O)O)CC5)C(=O)NCCCC[C@@H]5NC(=O)[C@@H](Cc6ccc(O)cc6)NC(=O)[C@H](CC(=O)O)NC(=O)CNC(=O)[C@H](CCCNC(=N)N)NC5=O)C4=O)CC3)cc12 (stereo partly drawn) [^68Ga-SDYD07-1, metal not drawn]
radioactive uptake in non-target organs (in words) [2]: relatively high non-specific uptake in both the kidneys and liver | tumor uptake after 60 minutes (in words) [2]: decreased significantly after 60 minutes | tissue uptake at 0.5 h [3]: ~3 %ID/g | tissue uptake at 1 h [3]: ~3 %ID/g

CN1C(=O)[C@@H](Cc2ccc(O)cc2)NC(=O)CNC(=O)[C@H](Cc2ccc3ccccc3c2)NC(=O)[C@H](CCCNC(=N)N)NC(=O)[C@H]1CCCNC(=O)c1ccc(CNC(=O)[C@H](CCCCNC(=O)CN2CCN(CC(=O)O)CCN(CC(=O)O)CCN(CC(=O)O)CC2)NC(=O)CCC(=O)NCCOCCOCC(=O)NCCOCCOCC(=O)N2CCN(CCCOc3ccc4nccc(C(=O)NCC(=O)N5CC(F)(F)C[C@H]5C#N)c4c3)CC2)cc1 [^177Lu-SDYD05, metal not drawn]
stability in PBS buffer (in words) [1]: quite stable in PBS buffer
